From IntAct's records for PubMed 19011093

B1: RAN GTPase-activating protein 1 (Arabidopsis thaliana (Mouse-ear cress)), Q9LE82 (parent)
chain: MDHSAKTTQNRVLSVKMWPPSKSTRLMLVERMTKNITTPSIFSRKYGLLSVEEAEQDAKRIEDLAFATANKHFQNEPDGDGTSAVHVYAKESSKLMLDVIKRGPQEESEVEVSKDGDVFFDISGGSRAFIEEEEARDLLRPLADPRNSYTKIRFSNRSFGSEAAKFAASVLSSIKDQLTEVDLSDFVAGRPEAEALEVMNMFSSALEGSKLRYLNLSDNALGEKGIRAFASLINSQHDLEELYLMNDGISEDAARAVRELLPSTDKIRVLQFHNNMTGDEGATAIAEIVRECPSLEDFRCSSTRIGSEGGVALAEALEHCSHLKKLDLRDNMFGVEGGIALAKTLSVLTHLTEIYMSYLNLEDEGTEALSEALLKSAPSLEVLELAGNDITVKSTGNLAACIASKQSLAKLNLSENELKDEGTILIAKAVEGHDQLVEVDLSTNMIRRAGARALAQTVVKKNTFKLLNINGNFISEEGIDEVNDMFKDCLDKLVPLDDNDPEGEDFEDEDEEEEGEDGNELESKLGSLKIKQGEE

Variants of: B1
Details: with kn12c_arath KIN12C

| Variant | effect of a mutation on the interaction |
| --- | --- |
| W18A;P19A | decreasing interaction |
